# Assay results: patent US20230053214
# Molecular target: human tau (441 amino acids), wild-type
protein,measurement,value
human wild-type p38γ (HA-tagged) (protein) MSSPPPARSGFYRQEVTKTAWEVRAVYRDLQPVGSGAYGAVCSAVDGRTGAKVAIKKLYRPFQSELFAKRAYRELRLLKHMRHENVIGLLDVFTPDETLDDFTDFYLVMPFMGTDLGKLMKHEKLGEDRIQFLVYQMLKGLRYIHAAGIIHRDLKPGNLAVNEDCELKILDFGLARQADSEMTGYVVTRWYRAPEVILNWMRYTQTVDIWSVGCIMAEMITGKTLFKGSDHLDQLKEIMKVTGTPPAEFVQRLQSDEAKNYMKGLPELEKKDFASILTNASPLAVNLLEKMLVLDAEQRVTAGEALAHPYFESLHDTEDEPQVQKYDDSFDDVDRTLDEWKRVTYKEVLSFKPPRQLGARVSKETPL,in vitro kinase assay with tau variants mutated to alanine,"confirmed site-specific phosphorylation of S199, T205, S396 and S404 by p38γ"
same,"in vitro kinase assay, immunoblotting with phosphorylation site specific antibodies","showed phosphorylation of tau at S199, T205, S396 and S404, but not other sites tested by p38γ"
